Paper PMC11003968 (Scientific Reports, 2024)

Molecular target: IsdB Y165A, site-directed mutant of Staphylococcus aureus IsdB (Staphylococcus aureus, UniProt Q2FZF0 41-613, Y165A)
Assay: ELISA
Conditions: both partners purified

B1: Human hemoglobin A (oxyhemoglobin) (complex)
chain 1: not shown
chain 2: not shown
- Kd: 80 ± 11 µM
